Reference: patent US7737250B2, “Peptides for treating axonal damage, inhibition of neurotransmitter release and pain transmission, and blocking calcium influx in neurons” (Mount Sinai School of Medicine of New York University, priority 2003, dated 2010)

Experiments:
[1] = biological target: T1, L1-CAM-ankyrin interactions (Homo sapiens, UniProt Q01484); test: Ankyrin recruitment assay: ankyrinB co-localization with L1-CAM at the membrane of transfected 293 cells; assay type: cell-based; settings: 1.4 μg/ml peptide for 30 minutes
T1 construct: expressed in transfected cells; host or cells: human kidney 293 cells
T1 sequence (Q01484 whole entry): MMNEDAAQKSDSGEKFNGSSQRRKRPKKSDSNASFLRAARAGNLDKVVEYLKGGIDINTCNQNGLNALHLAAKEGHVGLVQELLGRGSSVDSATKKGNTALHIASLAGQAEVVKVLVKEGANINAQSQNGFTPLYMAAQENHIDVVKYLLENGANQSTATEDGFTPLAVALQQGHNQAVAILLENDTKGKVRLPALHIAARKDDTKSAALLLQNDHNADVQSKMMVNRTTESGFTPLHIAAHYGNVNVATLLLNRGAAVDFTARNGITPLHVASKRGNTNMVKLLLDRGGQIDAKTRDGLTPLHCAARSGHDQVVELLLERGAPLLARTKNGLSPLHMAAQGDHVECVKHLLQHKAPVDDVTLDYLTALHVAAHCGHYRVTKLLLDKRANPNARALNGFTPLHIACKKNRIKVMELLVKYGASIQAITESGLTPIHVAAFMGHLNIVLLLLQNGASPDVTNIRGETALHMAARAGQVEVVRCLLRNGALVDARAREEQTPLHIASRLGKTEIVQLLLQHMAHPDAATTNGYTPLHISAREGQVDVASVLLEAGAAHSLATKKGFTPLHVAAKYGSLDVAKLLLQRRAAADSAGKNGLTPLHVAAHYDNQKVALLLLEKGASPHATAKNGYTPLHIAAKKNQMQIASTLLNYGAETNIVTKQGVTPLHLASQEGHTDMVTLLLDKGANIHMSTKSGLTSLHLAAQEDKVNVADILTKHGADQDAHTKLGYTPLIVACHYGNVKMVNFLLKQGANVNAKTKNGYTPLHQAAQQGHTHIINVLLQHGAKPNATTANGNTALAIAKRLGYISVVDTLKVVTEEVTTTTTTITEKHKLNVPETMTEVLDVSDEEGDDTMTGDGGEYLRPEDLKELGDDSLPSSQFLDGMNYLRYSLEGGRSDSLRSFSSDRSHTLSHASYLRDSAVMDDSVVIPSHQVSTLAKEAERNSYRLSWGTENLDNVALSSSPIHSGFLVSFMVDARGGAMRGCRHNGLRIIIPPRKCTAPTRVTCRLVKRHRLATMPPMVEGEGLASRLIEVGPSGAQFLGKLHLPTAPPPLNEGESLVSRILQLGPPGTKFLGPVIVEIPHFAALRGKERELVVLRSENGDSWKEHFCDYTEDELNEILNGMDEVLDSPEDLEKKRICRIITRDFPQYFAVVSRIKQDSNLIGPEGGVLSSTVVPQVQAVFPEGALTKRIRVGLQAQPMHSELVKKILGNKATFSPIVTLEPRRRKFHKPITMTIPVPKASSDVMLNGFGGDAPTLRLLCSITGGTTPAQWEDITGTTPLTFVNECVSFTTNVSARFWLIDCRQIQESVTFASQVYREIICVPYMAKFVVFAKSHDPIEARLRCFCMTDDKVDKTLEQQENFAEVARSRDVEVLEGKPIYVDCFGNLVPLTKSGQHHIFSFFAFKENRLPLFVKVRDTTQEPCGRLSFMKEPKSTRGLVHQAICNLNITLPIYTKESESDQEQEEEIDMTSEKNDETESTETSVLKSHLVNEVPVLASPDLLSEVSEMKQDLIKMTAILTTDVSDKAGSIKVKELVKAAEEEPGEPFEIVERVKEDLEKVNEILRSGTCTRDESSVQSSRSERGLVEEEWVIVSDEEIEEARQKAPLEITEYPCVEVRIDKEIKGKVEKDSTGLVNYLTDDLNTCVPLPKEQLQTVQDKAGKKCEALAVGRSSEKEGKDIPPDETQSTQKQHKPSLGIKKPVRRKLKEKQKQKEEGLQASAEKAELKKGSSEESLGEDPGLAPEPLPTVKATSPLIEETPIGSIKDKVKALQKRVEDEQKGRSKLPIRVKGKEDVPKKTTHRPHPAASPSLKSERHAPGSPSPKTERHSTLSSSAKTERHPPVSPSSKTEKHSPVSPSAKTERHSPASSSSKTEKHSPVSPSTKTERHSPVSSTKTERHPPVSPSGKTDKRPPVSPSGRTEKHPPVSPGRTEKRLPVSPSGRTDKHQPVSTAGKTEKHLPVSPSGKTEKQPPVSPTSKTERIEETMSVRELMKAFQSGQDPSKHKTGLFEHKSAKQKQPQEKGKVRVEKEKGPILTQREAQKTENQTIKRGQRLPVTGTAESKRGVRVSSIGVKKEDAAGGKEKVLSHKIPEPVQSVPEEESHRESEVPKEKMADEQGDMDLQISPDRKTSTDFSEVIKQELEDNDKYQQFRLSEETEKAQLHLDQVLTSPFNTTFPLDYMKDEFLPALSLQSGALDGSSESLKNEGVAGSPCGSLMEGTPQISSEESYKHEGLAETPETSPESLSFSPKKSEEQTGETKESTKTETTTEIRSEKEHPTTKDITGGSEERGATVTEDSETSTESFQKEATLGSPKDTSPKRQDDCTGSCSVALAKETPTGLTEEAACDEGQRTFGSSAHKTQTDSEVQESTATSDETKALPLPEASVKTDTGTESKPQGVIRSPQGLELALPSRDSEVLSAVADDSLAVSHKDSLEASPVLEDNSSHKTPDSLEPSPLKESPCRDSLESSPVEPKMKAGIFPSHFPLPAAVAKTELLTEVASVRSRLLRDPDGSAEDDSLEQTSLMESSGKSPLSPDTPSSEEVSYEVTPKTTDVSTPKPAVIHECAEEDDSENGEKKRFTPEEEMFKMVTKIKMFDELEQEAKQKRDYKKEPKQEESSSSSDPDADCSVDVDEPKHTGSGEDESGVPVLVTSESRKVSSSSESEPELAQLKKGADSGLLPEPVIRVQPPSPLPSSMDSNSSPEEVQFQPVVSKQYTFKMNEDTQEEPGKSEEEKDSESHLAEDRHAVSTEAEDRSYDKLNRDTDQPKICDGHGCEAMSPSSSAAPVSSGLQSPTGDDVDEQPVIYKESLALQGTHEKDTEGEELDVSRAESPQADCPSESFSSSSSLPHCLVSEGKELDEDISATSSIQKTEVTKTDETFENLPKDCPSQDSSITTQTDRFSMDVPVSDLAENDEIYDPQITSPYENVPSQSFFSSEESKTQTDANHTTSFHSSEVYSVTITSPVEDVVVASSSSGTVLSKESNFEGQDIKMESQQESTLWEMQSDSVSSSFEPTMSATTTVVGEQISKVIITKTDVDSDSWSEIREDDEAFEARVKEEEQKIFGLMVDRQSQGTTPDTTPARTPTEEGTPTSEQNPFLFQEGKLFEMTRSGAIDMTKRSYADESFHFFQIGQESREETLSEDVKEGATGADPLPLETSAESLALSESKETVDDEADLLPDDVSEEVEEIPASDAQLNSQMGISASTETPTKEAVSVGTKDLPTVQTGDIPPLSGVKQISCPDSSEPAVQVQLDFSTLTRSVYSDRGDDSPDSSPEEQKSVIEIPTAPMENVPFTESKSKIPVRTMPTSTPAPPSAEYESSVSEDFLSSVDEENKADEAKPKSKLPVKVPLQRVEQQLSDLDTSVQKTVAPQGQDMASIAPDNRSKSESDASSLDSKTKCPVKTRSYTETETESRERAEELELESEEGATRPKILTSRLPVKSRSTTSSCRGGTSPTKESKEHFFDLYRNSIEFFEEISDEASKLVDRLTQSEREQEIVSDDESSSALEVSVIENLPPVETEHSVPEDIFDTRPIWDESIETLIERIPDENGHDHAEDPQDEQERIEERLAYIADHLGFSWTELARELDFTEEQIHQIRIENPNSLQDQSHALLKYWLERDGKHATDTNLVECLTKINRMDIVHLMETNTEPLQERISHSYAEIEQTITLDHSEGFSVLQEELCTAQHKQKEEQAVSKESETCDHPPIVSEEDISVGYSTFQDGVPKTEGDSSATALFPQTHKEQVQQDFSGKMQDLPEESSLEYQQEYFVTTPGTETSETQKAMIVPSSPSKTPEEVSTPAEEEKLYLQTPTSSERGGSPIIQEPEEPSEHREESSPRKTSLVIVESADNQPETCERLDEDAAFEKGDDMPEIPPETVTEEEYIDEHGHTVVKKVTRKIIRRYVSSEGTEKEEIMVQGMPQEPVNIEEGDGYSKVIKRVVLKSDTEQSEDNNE
Protocol: Cell culture aid transfection: Human kidney 293 cells were cultured in DMEM medium (Gibco) supplemented with penicillin, streptomycin, L-glutamine, and 10% fetal bovine serum (Hyclone). The pMyc-L1-CAM or pL1-CAM-GFP expression constructs were transfected into cultured human kidney 293 cells using Lipofectamine plus (Invitrogen) according to manufacturer instructions. Cells were cultured for 24-48 hours and then used, or cultured continuously in the presence of 0.5 μg.mL G418 (Gibco) to select for stably transfected cells lines, to generate stable pooled lines of L1-CAM-expressing cells.
In some instances, transfected 293 cells were treated with neural growth factor (NGF) or epidermal growth factor (EGF) to stimulate phosphorylation of tyrosine 1229 (Y1229) of the L1-CAM cytoplasmic domain, and thereby inhibit ankyrin binding. In these cases, cells were treated with 50 ng/mL EGF (Gibco) or 100 ng/mL NGF (Gibco) for 1 hour prior to the assay. […]
Ankyrin and L1-CAM were detected by indirect immunofluorescence in double-labeled confocal sections through cell aggregates to permit the visualization of L1 and ankyrinB at the cell membrane. Expression of myc-L1-CAM was detected using a polyclonal anti-L1-CAM rabbit antibody. […] Ankyrin was detected using a monoclonal anti-ankyrinB mouse antibody (BD PharMingen). […]
Quantification of ankyrin immunolocalization: Confocal micrographs were then used to quantify the degree of ankyrin localization to the cell membrane of myc-L1-CAM expressing cells. Images were analyzed using ImageJ (NIH) under Macintosh OSX. The method for quantifying ankyrinB localization to the membrane uses densitometry of a line scan perpendicular to and crossing a cell-cell junction. […]
The densitometry intensity profile of the scanned line was used to determine a minimum ankyrinB signal for comparison to the value of the ankyrinB signal at the point where the maximum signal in the L1-CAM channel occurs. […] Minima were determined from the regions of the line overlapping the cytoplasm of either of the two cells. […]

Cav2.2 current = test: Whole-cell calcium current recording in DRG neurons; assay type: cell-based, chick; settings: 1.4 ng/ml peptide in recording pipette; after 2 minutes of recording
Protocol: Electrophysiology: Standard tight seal, whole-cell recording methods [Hamill et al.,1981 Pflugers Arch. 381, 85-10] were employed. Cells were incubated in an external solution containing 133 mM NaCl, 1 mM CaCl2, 0.8 mM MgCl2, 25 mM HEPES, 12.5 mM NaOH, 5mM glucose, 10 mM tetraethylammonium chloride, […] (pH 7.4). Experiments were performed on the stage of an inverted microscope. Recording pipettes were fabricated from microhemnatocrit tubing (Fisher) and filled with an internal recording solution containing 150 mM CsCl, 5 BAPTA, 5 MgATP, 10 HEPES (pH 7.2). All salts were obtained from Fluka. Initial pipette resistances were 0.8-1.2 MΩ. […]
Electrophysiology Data Analysis—Data was filtered at 3 kHz, acquired at 10-20 kHz and analyzed using PulseFit (HEKA) and IgorPro (WaveMetrics) on a Macintosh G3 computer. […] Such conditioning pulses have no effect on control currents recorded in the absence of GABA. During the application of the transmitter, test pulse currents measured before and after the conditioning pulse are subtracted to yield the voltage-dependent component. Test pulses measured following the conditioning pulse are subtracted from control currents (measured in the absence of GABA) to yield the voltage-independent component.

Row | Sequence | ankyrin co-localization with L1-CAM at the cell membrane (L1-CAM-ankyrin interactions) [1] | inhibition of calcium current (Cav2.2 current)
1 | RQIKIWFQNRRMKWKKQFNEDGSFIGQF [AP-YF] | inhibited L1-CAM-ankyrin interactions | 83+17%
2 | RQIKIWFQNRRMKWKKFQGIFSGDENFQ [AP-Scramble] | no detectible effects | no significant effect
